Measured values from article PMC4514642, “^99mTc-3P-RGD2 molecular imaging targeting integrin αvβ3 in head and neck squamous cancer xenograft” (Journal of Radioanalytical and Nuclear Chemistry, 2015).

Legend:
[1] = In vitro stability in serum by radio-HPLC; assay type: in vitro ADME; conditions: fetal calf serum (result text); newborn calf serum / 2 mL human serum in method; 37 MBq, 37 °C, incubation 6 h (analysed at 0 min, 3, 4, 6 h); radio-HPLC radiochemical purity
Experimental: The stability of ^99mTc-3P-RGD2 in newborn calf serum was determined after incubating the radiolabeled compound (37 MBq) in 2 mL […] at 37 °C. Every 20 μL mixture was injected directly into the radio-HPLC to analyze the radiochemistry purity, which was followed by radiolabeling efficiency analysis at 0 min, 3, 4, and 6 h.
Fig. 2 Radio-HPLC analysis of ^99mTc-3P-RGD2 stability. ^99mTc-3P-RGD2 incubated in new-born calf serum for 0 min (a), 3 h (b), 4 h (c), 6 h (d) after labeling

[2] = Biodistribution in HEP-2 tumor bearing mice; assay type: in vivo, BALB/c nude mice; conditions: female, BALB/c nude, mouse, iv, total radioactivity, HEP-2 model, mean ± SD
Experimental: (§1) Female BALB/c nude mice (4–5 weeks of age, 15–20 g of weight) were purchased from the Department of Animal Experiment, Chinese Academy of Medical Sciences. The mice were subcutaneously implanted with 3 × 10^6 the HEP-2 cells (6 mice) or 2 × 10^5 the CNE-1 cells (6 mice) in 0.1 mL of saline into the right upper shoulder flanks. All procedures were performed in a laminar flow cabinet using the aseptic technique. Fifteen to nineteen days after inoculation, the tumor size was 1–1.5 cm, the tumor-bearing mice were used for biodistribution and imaging studies. Capital Medical University Animal Care and Use Committee approved the animal experiments.
(§2) The biodistribution of ^99mTc-3P-RGD2 in HEP-2 tumor bearing mice and CNE-1 tumor bearing mice was evaluated in groups of 3 mice per time point at 60 min and 120 min after injection of approximately 0.55–0.74 MBq of ^99mTc-3P-RGD2 in 0.1 mL saline via tail vein. From all mice, tumors and tissue samples (blood, heart, liver, spleen, kidney, lung, intestine and muscle) were harvested and weighed. Subsequently, radioactivity uptake was determined in γ-counter. Activity concentrations in the tissues were calculated as percentage of the injected dose per gram of tissue (%ID/g). To correct for radioactive decay, injection standards were counted simultaneously.

[3] = system: HEP-2 tumor; assay: Biodistribution in HEP-2 tumor bearing mice; assay type: in vivo, BALB/c nude mice; conditions: stated for HEP-2 and CNE-1 tumor models together
Experimental: as §1, §2

[4] = Biodistribution in CNE-1 tumor bearing mice; assay type: in vivo; conditions: female, BALB/c nude, mouse, iv, total radioactivity, CNE-1 model, mean ± SD
Experimental: as §1, §2

## N=C(N)NCCC[C@@H]1NC(=O)[C@H](CCCCNC(=O)CCOCCOCCOCCOCCNC(=O)CC[C@H](NC(=O)CCOCCOCCOCCOCCNC(=O)c2ccc(NN)nc2)C(=O)NCCOCCOCCOCCOCCC(=O)NCCCC[C@@H]2NC(=O)[C@@H](Cc3ccccc3)NC(=O)[C@H](CC(=O)O)NC(=O)CNC(=O)[C@H](CCCNC(=N)N)NC2=O)NC(=O)[C@@H](Cc2ccccc2)NC(=O)[C@H](CC(=O)O)NC(=O)CNC1=O [^99mTc-3P-RGD2, [^99mTc(HYNIC-3P-RGD2)(tricine)(TPPTS)], metal not drawn]
[1]
  stability in serum (radio-HPLC): stable
[2]; HEP-2 tumor / blood, 120 min p.i., read-out: tumor/blood ratio
  tissue to tissue ratio at 2 h: 6.37 ± 0.68
[2]; HEP-2 tumor / muscle, 120 min p.i., read-out: tumor/muscle ratio
  tissue to tissue ratio at 2 h: 4.44 ± 0.42
[2]; HEP-2 tumor, 60 min p.i., tail vein 0.55–0.74 MBq, γ-counter, %ID/g, 3 mice per time point
  tissue uptake at 1 h: 6.25 ± 0.22 %ID/g
[2]; HEP-2 tumor, 120 min p.i., tail vein 0.55–0.74 MBq, γ-counter, %ID/g, 3 mice per time point
  tissue uptake at 2 h: 4.56 ± 0.67 %ID/g
[3]; 60 min p.i.
  uptake in blood and muscle: low
[3]
  route of excretion: excreted predominantly via the renal route
[3]; selected organs
  kidney uptake: highest in the selected organs
[4]; CNE-1 tumor / blood, 120 min p.i., read-out: tumor/blood ratio
  tissue to tissue ratio at 2 h: 2.49 ± 0.09
[4]; CNE-1 tumor / muscle, 120 min p.i., read-out: tumor/muscle ratio
  tissue to tissue ratio at 2 h: 1.86 ± 0.07
[4]; CNE-1 tumor, 60 min p.i., tail vein 0.55–0.74 MBq, γ-counter, %ID/g, 3 mice per time point
  tissue uptake at 1 h: 2.74 ± 0.51 %ID/g
[4]; CNE-1 tumor, 120 min p.i., tail vein 0.55–0.74 MBq, γ-counter, %ID/g, 3 mice per time point
  tissue uptake at 2 h: 1.69 ± 0.18 %ID/g
